Test: yeast display, Sf9 membrane polyspecificity reagent, FACS + sequencing; frameworks hold sequencing errors
Procedure, shortened: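 A nanobody's polyreactivity label depends on the gate it was sorted from. Yeast display cells were stained with 10% biotinylated, detergent-solubilized Sf9 membrane reagent for 1 hour at 4 °C, enriched on streptavidin microbeads and sorted by FACS. The low and high (top ~1%) gates were set on anti-HA fluorescence for expression and streptavidin fluorescence for reagent binding.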

Sequence | polyreactivity (PSR sort gate)
QVQLVESGGGLVQAGGSLRLSCAASGRTFTNNAMGWYRQAPGKERELVARITKTSGSTHYADSVKGRFTNSRDNAKNTVYLQMNSMKPEDTAVYYCATRGHYHGFYYTYPRYDSWGQGTQVTVSS | low polyreactivity
QVQLVESGGGLVQAGGSLRLSCAASGRTFTPNVMGWYRQAPGKERELVAAITQSGGRTYYADSVKGRFTISRDNAKNTVYLQMNSLKPEDTAVYYCNAERAGTYRYDYWGQGTQVTVSS | high polyreactivity
QVQLVESGGGLVQAGGSLRLSCAASGRTFTPYAMGWYRPAPGKERELVATISSGTSTNYADSVKGRVTISRDNAKNTVYLQMNSLKPEDTAVYYCSPSRDTVGRGPIQRDYWGQGTQVTVSS | low polyreactivity
QVQLVESGGGLVQAGGSLRLSCAASGRTFTPYAMGWYRQAPGKERELVAAITSNSGITSYADSVKGRFTISRDNAKNTVYLQMNSLKPEDTAVYYCNADYYRYFRYYYWGQGTQVTVSS | high polyreactivity
QVQLVESGGGLVQAGGSLRLSCAASGRTFTPYTMGWYRQAPGKEREFVAAITVRGGSTYYADSVKGRFTISRDNAKNTVYLQMNSLKPEDTAVYYCAASYVSYRKRDDYWGQGTQVTVSS | high polyreactivity
QVQLVESGGGLVQAGGSLRLSCAASGRTFTQYAMGWYRQAPGKDRELVAAIDYRGSRTYYADSVKGRFTLTRDKAKNTVYLQMNSLKPEDTAVYYCNTVHRFGTYDYWGEGTQVTVSS | high polyreactivity
QVQLVESGGGLVQAGGSLRLSCAASGRTFTRNAMGWYRQAPGKERELVAAITYRAGRTYYADSVKGRFTISRDNAKNTVYLQMNSLKPEDTAVYYCNVVPGASLKEDYWGQGTQVTVSS | low polyreactivity
QVQLVESGGGLVQAGGSLRLSCAASGRTFTRYAMGLYRPAPGKERELVAAISYIGGRTNYADSVKGRFTISRDNAKKTVYLQMHSLKPEDTAVYYCAASRPWVYYDGLVYWGQGTQVTVTS | high polyreactivity
QVQLVESGGGLVQAGGSLRLSCAASGRTFTRYAMGWYRQAPGKERELVAAISGGGGSTYYADSVKGRFTISRDNAKNTVYLQMNSLKPEDTAVYYCAADVTYGTKWAYDYWGQGTQVTVSS | high polyreactivity
QVQLVESGGGLVQAGGSLRLSCAASGRTFTRYAMGWYRQAPGKERELVAAISRSGGSTHYADSVKGRFTISRDKAKNTVYLQMNSLKPEDTAVYYCNAQQGRYWSAKGYDYWGQGTQVTVSS | high polyreactivity
QVQLVESGGGLVQAGGSLRLSCAASGRTFTRYTKGWYRQAPRKERDLVAASTRGGSTYADSVKGRFTNSRDNAKNTVYLEMNSLKPEDTAVYYCAAYWGFFPWRAYPYDYWGQGTQVTVSS | high polyreactivity
QVQLVESGGGLVQAGGSLRLSCAASGRTFTRYTMGWYRQAPRKERELVAAITRGGTTYYADSVKGRFTISRDNAKNTVYLQMNSLKPEDTAVYYCNKRKQQSSDGYGYWGQGTQVTVSS | high polyreactivity
QVQLVESGGGLVQAGGSLRLSCAASGRTFTSNGMGWYRQAPGKERELVAAITSGTSTYYADSVKGRFTISRDNAKNTVYLQMNSLKPEDTAVYYCNKLVPRGSSYSTVIRGGGYWGQGTQVTVSS | high polyreactivity
QVQLVESGGGLVQAGGSLRLSCAASGRTFTSYAMGWYRQAPGKERELVAGISSGGSTNYADSVKGRFTISRDNAKNTVYLQMNSLKPVDTAVYYCAAGFSPGTFYAPTLAFDYWGQGTQVTVSS | low polyreactivity
QVQLVESGGGLVQAGGSLRLSCAASGRTFTSYAMGWYRQAPGKERELVAGISSGGSTNYADSVKGRFTISRDNEKNTVYLQMNSLKPEDTEVYYCAAGFSPGTYDAPTLAFDYWGQGTQVTVSS | low polyreactivity
QVQLVESGGGLVQAGGSLRLSCAASGRTFTSYAMGWYRQAPGKERELVAVITRRGGSTSYADSVKGRFTISRDNAKNTVYLQMNSLKPEDTAVYYCAAKRTWPDVKYIRYGYWGQGTQVTVSS | high polyreactivity
QVQLVESGGGLVQAGGSLRLSCAASGRTFTSYPMGWYRQAPGKERELVAAISQGGGRTYYADSVKGRFTISRDNAKNTVYLQMNSLKPEDTAVYYCNTVSLSLRYDYWGQGTQVTVSS | high polyreactivity
QVQLVESGGGLVQAGGSLRLSCAASGRTFTTNAMGSYRQAPGKERELVAAITIGDDTYYADSVKGRFTISRDNAKNTVYLQMNSLKPEDTAVYYCAADYKRVPFVTQYVSKDGYWGQGTQVTVSS | low polyreactivity
QVQLVESGGGLVQAGGSLRLSCAASGRTFTTNAMGWYRQAPGKERELVAGISYSTGRTYYADSVKGRFTISRDNAKNTVYLQMNSLKPEDTAVYYCAAYTRGYRGYYYWGQGTQVTVSS | high polyreactivity
QVQLVESGGGLVQAGGSLRLSCAASGRTFTTYAMGWYRQAPGKERELVASISGSGGSTYFADSVKGRFTISRDNAKNTVYLQMNSLKPEDTAVYYCATADYYHGGYYYPYDDYWGQGTQVTVSS | low polyreactivity
QVQLVESGGGLVQAGGSLRLSCAASGRTFTTYAMGWYRQAPRKERELVASISRRGGSTYYADSVKGRFTISRDNAKNTVYLQMNSLKPEDTAVYYCNAGGVRKYGYWGQGTQVTVSS | high polyreactivity
QVQLVESGGGLVQAGGSLRLSCAASGRTFTVNAMGWYRPAPGKERELVAAISGRSGRTSYADSVKGRFTISRDNAKNNVYLQMNSLKPEDTAVYSCNASGGYSTGSRFEYWGQGTQVTVSS | high polyreactivity

Sequence | polyreactivity (PSR sort gate)
QVQLVESGGGLVQAGGSLRLSCAASGRTFTWNAMGWYRQAPGKERELVADITNNGGSTYYADSVKGRFTISRDNATNTVYLQMNSLKPEDTAVYYCDNRRNYWFSFDYWGQGTQVTVSS | low polyreactivity
QVQLVESGGGLVQAGGSLRLSCAASGRTFTWYTMGCYIQAPGKERELVAAISGSGSRTYYADSVKGRFTISRDNAKNTVYLQMNSLKPEDTAVYYCAKDKSARYRYDYWGQGTQVTVSS | low polyreactivity
QVQLVESGGGLVQAGGSLRLSCAASGRTFTYNAMGWYRQAPGKERELVASITWSGGRTYYADSVKGRFTISRDNAKNTVYLQMNSLKPEDTAVYYCAAYRWWGYITGVRGAKSIFDYWGQGTQVTVSS | high polyreactivity
QVQLVESGGGLVQAGGSLRLSCAASGRTFTYNTMGWYRQAPGKERELVAAISSRGGRTYYADSVKGRFTISRDNAKNTVYLQLNSLKPEDTAVYACAVYGYYALTHWEYDYWGQGTQVTVSS | high polyreactivity
QVQLVESGGGLVQAGGSLRLSCAASGRTFTYYAMGWYRQAPGKERELVADINRSGGDTYYADSVKGRFTISRDNAKNTVYLQMNSLKPEDTAVYYCAADDWGAQHRYDYWGQGTQVTVSS | low polyreactivity
QVQLVESGGGLVQAGGSLRLSCAASGRTFTYYAMGWYRQAPGKERELVARISSSGSTNYADSVKGRFTISRDNAKNTVYLQMNSLKPEDTAVYYCAARYWRGPRYDYWGQGTQVTVSS | high polyreactivity
QVQLVESGGGLVQAGGSLRLSCAASGRTFTYYAMGWYRQAPGKERKLVAAISQRGGGTYYADSVKGRFTISRDNAKNTVYLQMNSLKPEDTAVYYCAARWRLSGYDYWGQGTQVTVSS | high polyreactivity
QVQLVESGGGLVQAGGSLRLSCAASGRTFVDNAMGWYRHAPGKERELVAAISSGGTTNYADSVKGRFTISRDNAKNTVYLQMNSLKPEDTAVYYCNTVATYLRSGYGYWGQGTQVTVSS | low polyreactivity
QVQLVESGGGLVQAGGSLRLSCAASGRTFVDYVMGWYRQAPGKERELVAAISRSGSTYYADSVKGRFTISRDNAKNTVYLQMNSLKPEDTAVYYCAASSVALPWYVSWYVYGYEYWGQGTQVTVSS | low polyreactivity
QVQLVESGGGLVQAGGSLRLSCAASGRTFVFNAMGWYRQAPGKERELVAGISGSGGSTYYADSVKGRFTISRDNAKNTVYLQMNSLKPEDTAVYYCATKFPRKELDQDSVSGLGYWGQGTQVTVSS | low polyreactivity
QVQLVESGGGLVQAGGSLRLSCAASGRTFVGNVMGWYRQAPGKERELVAAINRDASTNYADSVKGRFTISRDNAKNTVYLQMNSLKPEDTAVYYCATRRGFFDIFYGGYDYWGQGTQVTVSS | low polyreactivity
QVQLVESGGGLVQAGGSLRLSCAASGRTFVGYAMGWYRQAPGKERELVAAISRRGGSTYYADSVKGRFTISRDYAKKTVYLQMNSLKPEDTAVYYCARDYGGVGAPGSAGAYDYWGQGTQVTVSS | high polyreactivity
QVQLVESGGGLVQAGGSLRLSCAASGRTFVGYAMGWYRQAPGKERELVAAISWSGGRTYYADSVKGRFTISRDNAKNTVYLQMNSLKPEDTAVYYCAALLYRTPYYPYYGYDYWGQGTQVTVSS | high polyreactivity
QVQLVESGGGLVQAGGSLRLSCAASGRTFVGYAMGWYRQSPGKERELVAAISTSGGRTYYADSVKGRFTISRDNAKYTVYLQMNSLKPEDTAVYYCAAGFRASIGYVTEYYWGQGTQVTVTS | high polyreactivity
QVQLVESGGGLVQAGGSLRLSCAASGRTFVGYPIGWYRQAPGKESELVATITNDAITNADSVKGRFTISRDNAKNTVYLQMNSLKPEDTAVYYCNTRYSYGTAYEQYRYKALYDYWGQGTQVTVSS | low polyreactivity
QVQLVESGGGLVQAGGSLRLSCAASGRTFVINAMGWYRQAPGKERELVAAISRGGSTNYADSVKGRFTISRDNAKNTVYLQMNSLKPEDTAVYYCNADYPNWWSPFDYWGQGTQVTVSS | low polyreactivity
QVQLVESGGGLVQAGGSLRLSCAASGRTFVKNAMGWYRQAPGKERELVAAIDRGSRTNYADSVKGRFTISRDNAKNTVYLQMNSLKPEDTAVYYCATRYRVRDDQTGTWSIFGYWGQGTQVTVSS | high polyreactivity
QVQLVESGGGLVQAGGSLRLSCAASGRTFVKNAMGWYRQAPGKERELVAAISRTGSTNYADSVKGRFTISRDNAKNTVYLQMNSLKPEDTAVYYCAAVRYDYWGQGTQVTVSS | low polyreactivity
QVQLVESGGGLVQAGGSLRLSCAASGRTFVLYAMGWYRQAPGKERELVAAITSGGSTNYADSVKGRFTISRDNAKNTVYLQMNSLKPEDTAVYDCAAVPVRYRYSYGYYYWGQGTQVTVSS | high polyreactivity
QVQLVESGGGLVQAGGSLRLSCAASGRTFVLYAMGWYRQAPVKERELVASITWSGVSTTYADSVKGRFTISRDNAKNTVYLQMNSLKPEDTAVYYCAKDGLFEQGYPYQLGYWGQGTQVTVSS | low polyreactivity
QVQLVESGGGLVQAGGSLRLSCAASGRTFVLYTMGRYRQAPGKERELVAVGSTYYADSVKGRFTISRDNAKNTVYLQMNSLKPEDTAVYYCNKPGNYVWRRSWDFDYWGQGTQVTVSS | high polyreactivity
